According to the DeepSol protein solubility set:

Experiment: soluble on expression in E. coli; label from the status in PepcDB or PDB records

| Sequence | soluble on expression in E. coli |
| --- | --- |
| DNSSFDSLSPEPKSRFAMLDDVKILANGLLQLGHGLKDFVHKTKGQINDIFQKLNIFDQSFYDLSLQTSEIKEEEKELRRTTYKLQVKNEEVKNMSLELNSKLESLLEEKILLQQKVKYLEEQLTNLIQNQPETPEHPEVTSLKTFVEKQDNSIKDLLQTVEDQYKQLNQQHSQIKEIENQLRRTSIQEPTEISLSSKPRAPRTTPFLQLNEIRNVKHDGIPAECTTIYNRGEHTSGMYAIRPSNSQVFHVYCDVISGSPWTLIQHRIDGSQNFNETWENYKYGFGRLDGEFWLGLEKIYSIVKQSNYVLRIELEDWKDNKHYIEYSFYLGNHETNYTLHLVAITGNVPNAIPENKDLVFSTWDHKAKGHFNCPEGYSGGWWWHDECGENNLNGKYNKPRAKSKPERRRGLSWKSQNGRLYSIKSTKMLIHPTDSESFE | not soluble |
| MRLIHLSDIHAGKNLGRVSRNEDVVYALNQVVDFCKENKPDLVLVAGDVFDKANPDNEAKEIIFDFFLKLHSLNIPSVVISGNHDSYEFMKSLKKLLQVIDVYVVPKPNLEECVLDVKGLKIACLPYPSERVLTRAGEDSKLSYAVLVEKAIKYLYEKVKDAPLKVLLSHLFIAGSKYTRTEREATITDYYAVEPSAIPEGFDYVALGHVHRYQRIEKAPTHVYYTGSLFQLDFSEAGQEKFFNFVELKEGEPPHVEAIKLSLKNPLHTFEINQENYAKELEKIKDVQGYIKVHLIVKDKTKMHLVAEKVKEALGEKLIKLELLTPEEAIKKRLEEEREIQKLNLLDLYRDYFKESYGREVPQEIIKTVSQLLEQVHES | soluble |
| MGSDKIHHHHHHMITHIRVASQQLEQPRFESPKELVSWMGAIQAQEYEMAKWAIGIRLRSSSLEKVNEALYKGDILRTHVMRPTWHFVAAEDIRWMLMLSSERIKAAVMSYAKGHFGKIEKTLFTRYLDQIGKILEGYKSLTKQEVTTELQKSGILPTIDHVNLFLTWGEVEGIVCSGIDKGKKTTYALLDERVPPTRELCREEALARLASRYFQSHSPAQLQDFVWWSGLTATECRLAINLIKTELITETFDSREYFIHQSWKGKNESKPVLRLLPAFDEYLISYKNRTDVLPLEHHPKAFNRFGTFYPVILYNGKIIGNWSRSIKKNTIQIEMDFFEKKPRIPVKLIQQAEAQIDAFYRGLSHRPALQCREK | not soluble |
| MGSDKIHHHHHHMVRPASRSERASLRIMNINPWRCEVSEKLLKQVNDKVSLCEKIAAEGFSFVPGQQIREWLLASNSEALQDWQAFDASWDGMPLDEYMADGGRYRRRRFATLSAATEGPIMLEPHQPHYQSREYNSLNGGIARIYEPIPPAVIQGQTMQSILQLSRDLFSHLRPQTRWHIEAHQFRIETNQHERGQPAPEGVHRDGVDYVLVMMVKRVNISSGTTTLHNLDKVVLDSFTLTNPLDCALVDDRRCMHGVTPVEQIDPAKAAYRDVLVVTFTAKL | not soluble |
| GPGSMPTRPLLVKYETPVLLSEVKHKKALKEKKRVAVGAQSGPQAEDVLYSIIPPREFEENGQQWVQYVSSIPATRMDVINLQERLDSLLLERNARETGICPVREELYSQVFDELIRQVTVNCAERGLLLLRVRDELRMTLDAYRSLYESSAAYGMRKALQAEQSKIEMESKIQALEREKEELKQQVEELEYRCESIIQQEKEKFAEAERKHNEEVAFFRRTYQTLTTNLQTLCNATKA | soluble |
| MGHHHHHHGSSIETDRVSKEFIEFLKTFHKTGQEIYKQTKLFLEGMHYKRDLSIEEQSECAQDFYHNVAERMQTRGKVPPERVEKIMDQIEKYIMTRLYKYVFCPETTDDEKKDLAIQKRIRALRWVTPQMLCVPVNEDIPEVSDMVVKAITDIIEMDSKRVPRDKLACITKCSKHIFNAIKITKNEPASADDFLPTLIYIVLKGNPPRLQSNIQYITRFCNPSRLMTGEDGYYFTNLCCAVAFIEKLDAQSLNLSQEDFDRYMSGQTSPRKQ | soluble |
| MGSDKIHHHHHHMKQGIEFIKFNPTQNMTILVETNDPIGEYKHIAEKIMSYDSVYAEQVGFIEKPLNRQAAAHLEMAGGEFCGNACMALAALIASEKGLRPTELMEIVLEVSGTDNLVMCQVERTLDEFHCQVTMPLPKQIEQKIVKYDGSEMNLIIVRYQEFIHIVIEVDDFNKIVREKAQSLAKLLGVTLGTNLIGILLYKSNTSELAPLIFVPDLDSMIWERGCGSGTASLGAYLAWKNKKEIVAKIKQPGGTIQVIATCEEEKLTSLKIEGSVSIVARGKAFIDV | not soluble |
| YDKRIHRFRKGWNSLIPTHNKIQYAGNMGMFSFGTGWDYGKRDQWETDLFFGFIPKHDSHRAKMTMTLKQNYMPWSLELGKGFSTEPLACGIYFNTVFGHEFWVHEPSRYPEGYYGFSSKIRTHIFLGQRLTYDIDRERRFFAKSVTLFYELSTCDLLLISRVTNSYLRARDYLSLSFGLKFQWL | not soluble |
| KGTVCVTNLSTGSKRLGAIAPNSTMLAVRNSADCLLALQQNHADAVISDDAILSGMIAQDPFTHIVGDPIATEQYAVAFAKPRTGRDTAPMIRQVNSTFERIFRDGTWTRTYNHWFGAYLAPQVHPAVHYREER | not soluble |
| MRNIDFSPLYRHAIGFDRLFNLVENSANKPSQQNGYPPYNIEQKDENNYRITMAVAGFSEDALTISQNEHMLIVSGDITSSEIKPTYVYQGIAERNFERKFQLADYVTVSAASMENGLLHIDLVREVPEAVQARKIAINK | not soluble |
| MGAGREVSVSLDGVRDKNLMQLKILNTVLFPVRYNDKYYADAIAAGEFTKLAYYNDICVGAIACRLEKKESGAMRVYIMTLGVLAPYRGIGIGSNLLNHVLDMCSKQNMCEIYLHVQTNNEDAIKFYKKFGFEITDTIQNYYINIEPRDCYVVSKSFAQSEANK | soluble |
| MGSDKIHHHHHHMPNDTHTTQANVDPAEIAKFEAMAQSWWDPNGEFKPLHQLNPLRLNYIDSTAGGIFAKKVLDVGCGGGILSESMAKLGANVDGIDMGEAPLEVARLHALESGVMVNYHKTTAEAHSASHANHYQVVTCMEMLEHVPDPQSVIQACCDMVEPGGFVFFSTINRNMLSYVQAILGAEYLLKLLPIGTHDHSKFIRPSELMAMVDNTDLICKDALGISFNPLTSIFSYTKSLEVNYMIATQKMAD | not soluble |
| MAHHHHHHMEKTIITLLPVVEKAPKENMERVLDVFRHYLKRYGADHYIYNAVMQAAAFAKNYEQAEQLFKEMETLGLEPNAQSYVNMMLAAKLCGLPPEKSEAYFKRAVKDGAMQSVMRMDTEFRMWMDQLDRLGSFTASSGYLSVNEEGAKPMPRDMWAIWGWHRSESKFISRRDLIMQQVRARVHSGKELVGTVYTKTRRQPWAKFNGMLRHDYNGPSYRAPTIFPDAPEYTNEAGHKAF | not soluble |
| MSLSKTYVGSRVRQLRNERGFSQAALAQMLEISPSYLNQIEHDVRPLTVAVLLRITEVFGVDATFFASQDDTRLVAELREVTLDRDLDIAIDPHEVAEMVSAHPGLACAVVNLHRRYRITTAQLAAATEERFSDGSGRGSITMPHEEVRDYFYQRQNYLHALDTAAEDLTAQMRMHHGDLARELTRRLTEVHGVRINKRIDLGDTVLHRYDPATNTLEISSHLSPGQQVFKMAAELAYLEFGDLIDAMVTDGKFTSAESRTLARLGLANYFAAATVLPYRQFHDVAENFRYDVERLSAFYSVSYETIAHRLSTLQRPSMRGVPFTFVRVDRAGNMSKRQSATGFHFSSSGGTCPLWNVYETFANPGKILVQIAQMPDGRNYLWVARTVELRAARYGQPGKTFAIGLGCELRHAHRLVYSEGLDLSGDPNTAATPIGAGCRVCERDNCPQRAFPALGRALDLDEHRSTVSPYLVKQEGHHHHHH | soluble |
| MAARTALGAVCRRLWQGLGNFSVNTSKGNTAKNGGLLLSTNMKWVQFSNLHVDVPKDLTKPVVTISDEPDILYKRLSVLVKGHDKAVLDSYEYFAVLAAKELGISIKA | not soluble |
| GPGSMKEIILYTRPNCPYCKRARDLLDKKGVKYTDIDASTSLRQEMVQRANGRNTFPQIFIGDYHVGGCDDLYALENKGKLDSLLQDVH | soluble |
| AQVPASGKLLVDPRYSTNDQEESILQDIITRFPNVVLMKQTAQLRAMMTIIRDKETPKEEFVFYADRLIRLLIEEALNELPFQKKEVTTPLDVSYHGVSFYSKICGVSIVRAGESMESGLRAVCRGVRIGKILIQRDETTAEPKLIYEKLPADIRERWVMLLDPMCATAGSVCKAIEVLLRLGVKEERIIFVNILAAPQGIERVFKEYPKVRMVTAAVDICLNSRYYIVPGIGDFGDRYFGTM | soluble |
